From publication PMC4340967, “Histidine 352 (His^352) and Tryptophan 355 (Trp^355) Are Essential for Flax UGT74S1 Glucosylation Activity toward Secoisolariciresinol” (PLoS ONE, 2015)

Columns and labels:
[1] = substrate: COc1cc(C[C@@H](CO)[C@H](CO)Cc2ccc(O)c(OC)c2)ccc1O; assay: UPLC-MS assay of SMG formation, Lineweaver-Burk; type: biochemical, Linum usitatissimum; settings: 70-1650 µM SECO, 1.64 mM UDP-glucose fixed, 1 mM NaCl, pH 8.0, 30°C, for SMG production
Text: (§1) UPLC-MS assay of SMG formation, Lineweaver-Burk on UGT74S1 (wild type, W)

[2] = substrate: O=c1ccn([C@@H]2O[C@H](CO[P@@](=O)(O)O[P@@](=O)(O)O[C@H]3O[C@H](CO)[C@@H](O)[C@H](O)[C@H]3O)[C@@H](O)[C@H]2O)c(=O)[nH]1; assay: UPLC-MS assay of SMG formation, Lineweaver-Burk; type: biochemical, Linum usitatissimum; settings: 0.82-8.2 mM UDP-glucose, 280 µM SECO fixed, 1 mM NaCl, pH 8.0, 30°C, for SMG production
Text: as §1

Row | Protein | Km [1] [µM] | kcat [1] [s⁻¹] | kcat/Km [1] [M⁻¹ s⁻¹] | Km [2] [µM] | kcat [2] [s⁻¹] | kcat/Km [2] [M⁻¹ s⁻¹]
1 | UGT74S1 (wild type, W) (Linum usitatissimum) (protein) MAGDEREKAHCLVVPAAAQGHFTPLLQFSKRLIPKRIRVTLALTRFIHSTMTVTAQSGIHIDTISDGFDHSGLILQDPEHYSQTFRRVGSETLTDLIRKQSESRHPVHCIIYDASMPWFLDVAKRFGIVGAAFLTQSCAVNAIYYHLREGTIKRPVVSDPAAGTLVIDGLPPLEVSDLPSFIWDDLHTEFLAAHLRQFSNDGADWVFCNTVYQLELEAVDWLTKQWLINFRTIGPTIPSFYLDKQIPDDKDYDISIFNPQNQTCMNWLQSKPDGSVVYVSFGSLARLSPQQTEELYFGLKNSNHYFLWVVRESEVAKLPKEEYLSGEKGLVVSWCSQLQVLASGKVGCFVTHCGWNSTLEALSLGVPMVAMPECGDQLTNAKFIKDVWKTGVRAEADDGKGIMWGMIKREVIERCIREVMEGEETRRNADKWGKIIKEAVVEGGSSDKNTEDFATSLINFAETFQFSC | 717 | 0.23 | 321 | 1103 | 0.135 | 122
2 | UGT74S1 (wild type, W) (Linum usitatissimum; C335A) (protein) MAGDEREKAHCLVVPAAAQGHFTPLLQFSKRLIPKRIRVTLALTRFIHSTMTVTAQSGIHIDTISDGFDHSGLILQDPEHYSQTFRRVGSETLTDLIRKQSESRHPVHCIIYDASMPWFLDVAKRFGIVGAAFLTQSCAVNAIYYHLREGTIKRPVVSDPAAGTLVIDGLPPLEVSDLPSFIWDDLHTEFLAAHLRQFSNDGADWVFCNTVYQLELEAVDWLTKQWLINFRTIGPTIPSFYLDKQIPDDKDYDISIFNPQNQTCMNWLQSKPDGSVVYVSFGSLARLSPQQTEELYFGLKNSNHYFLWVVRESEVAKLPKEEYLSGEKGLVVSWASQLQVLASGKVGCFVTHCGWNSTLEALSLGVPMVAMPECGDQLTNAKFIKDVWKTGVRAEADDGKGIMWGMIKREVIERCIREVMEGEETRRNADKWGKIIKEAVVEGGSSDKNTEDFATSLINFAETFQFSC | 1538 | 0.0494 | 32.1 | 3443 | 0.256 | 74.3
3 | UGT74S1 (wild type, W) (Linum usitatissimum; Q337A) (protein) MAGDEREKAHCLVVPAAAQGHFTPLLQFSKRLIPKRIRVTLALTRFIHSTMTVTAQSGIHIDTISDGFDHSGLILQDPEHYSQTFRRVGSETLTDLIRKQSESRHPVHCIIYDASMPWFLDVAKRFGIVGAAFLTQSCAVNAIYYHLREGTIKRPVVSDPAAGTLVIDGLPPLEVSDLPSFIWDDLHTEFLAAHLRQFSNDGADWVFCNTVYQLELEAVDWLTKQWLINFRTIGPTIPSFYLDKQIPDDKDYDISIFNPQNQTCMNWLQSKPDGSVVYVSFGSLARLSPQQTEELYFGLKNSNHYFLWVVRESEVAKLPKEEYLSGEKGLVVSWCSALQVLASGKVGCFVTHCGWNSTLEALSLGVPMVAMPECGDQLTNAKFIKDVWKTGVRAEADDGKGIMWGMIKREVIERCIREVMEGEETRRNADKWGKIIKEAVVEGGSSDKNTEDFATSLINFAETFQFSC | 2716 | 0.0077 | 2.85 | 27610 | 0.547 | 19.8
